Test results published in publication PMC9825183, “A cap 0-dependent mRNA capture method to analyze the yeast transcriptome”.

T1: IFIT1 (6xHis) (Homo sapiens, UniProt P09914 1-478)
T1 sequence: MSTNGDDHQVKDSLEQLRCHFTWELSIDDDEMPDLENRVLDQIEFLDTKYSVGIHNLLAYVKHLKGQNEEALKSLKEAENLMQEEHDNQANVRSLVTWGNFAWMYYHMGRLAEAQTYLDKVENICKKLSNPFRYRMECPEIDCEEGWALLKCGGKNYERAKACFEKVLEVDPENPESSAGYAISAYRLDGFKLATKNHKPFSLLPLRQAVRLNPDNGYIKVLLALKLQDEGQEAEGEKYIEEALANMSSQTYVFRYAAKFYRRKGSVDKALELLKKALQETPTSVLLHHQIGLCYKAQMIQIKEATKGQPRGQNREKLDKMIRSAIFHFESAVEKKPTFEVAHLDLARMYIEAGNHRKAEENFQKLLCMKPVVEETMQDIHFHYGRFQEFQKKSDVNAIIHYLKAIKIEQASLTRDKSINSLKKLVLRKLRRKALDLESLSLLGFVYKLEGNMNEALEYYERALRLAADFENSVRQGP

B1: cap 0 160-mer (ssRNA)
RNA: GAAUACACGGAAUUCCUUUUUUUUUUUUUUUUUUUUUUUUAAGAAAGGCAGACUGCCACAUGCAGCGCCUCAUUUGGAUGUGUCUGGAGUCUUGGAAGCUUGACUACCCUACGUUCUCCUACAAAUGGACCUUGAGAGCUUGUUUGGAGGUUCUAGCAGG
modifications: 5' cap 0 (m7Gppp), Vaccinia Capping System

Key:
[1] = tested on: IFIT1 (His-SUMO removed) (Homo sapiens); assay: MST; conditions: apparent Kd; 10 nM RNA, protein up to 1 uM; 5' cap 0 (m7Gppp), Vaccinia Capping System; MST: PBS, 5% glycerol, 0.5 mM TCEP, 0.05% Tween20, 22 C. Pull-down: 50 mM Tris pH 7.5, 150 mM NaCl (wash 250 mM), 1 mM DTT, 5 mM imidazole, 0.01% Tween 20, 3 mM
IFIT1 (6xHis) = target: T1, IFIT1 (6xHis); assay: pull-down; Con-B; mix of four RNAs; poly(dI-dC) 2 ug/ml; 3 mM MgCl2; MST: PBS, 5% glycerol, 0.5 mM TCEP, 0.05% Tween20, 22 C. Pull-down: 50 mM Tris pH 7.5, 150 mM NaCl (wash 250 mM), 1 mM DTT, 5 mM imidazole, 0.01% Tween 20, 3 mM MgCl2, 2 ug/ml poly(dI-dC), 4 C; conditions: protein: recombinant; tags: 6xHis (pETG10a; tag described as N-terminal); single-stranded 5' end (predicted)

Molecule | Kd [1] | binding result (IFIT1 (6xHis))
Cap 0-100-mer (Cy5) | 47 nM | –
B1 | – | binds
